In PMC5384396 one finds Kd, Jurkat-based NFκB reporter gene assay, EC50, comparison of Fc isotypes (Fig. S5) and NFκB-luciferase reporter in hGITR-transfected Jurkat cells, agonism EC50 data, which are given here for three substances.

Assay [1] addresses histidine-tagged recombinant FcγRIIIa (158V) (human). The assay is described as follows: SPR. In general terms: SPR reads the build-up and loss of mass on a sensor chip optically.
The target in assay [2] is hGITR on hGITR-transfected Jurkat cells (human) (UniProt Q9Y5U5).
Assay [3] shares this target. This is another data set of the same source.

Chain of hGITR on hGITR-transfected Jurkat cells (human) (Q9Y5U5 26-241): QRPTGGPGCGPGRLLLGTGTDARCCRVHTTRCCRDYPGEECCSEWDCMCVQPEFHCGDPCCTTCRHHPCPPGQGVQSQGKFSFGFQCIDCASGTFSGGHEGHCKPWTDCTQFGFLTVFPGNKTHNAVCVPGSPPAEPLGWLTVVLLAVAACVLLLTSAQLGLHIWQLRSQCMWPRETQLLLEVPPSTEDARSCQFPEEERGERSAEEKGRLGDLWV

Take IgG1 isotype control antibody: the Kd in assay [1] amounted to 175 nM.
“IgG4 Fc-containing GITRL FP (from UniProt Q9UNG2 49-177) (Fc fusion)” displayed a Jurkat-based NFκB reporter gene assay, EC50, comparison of Fc isotypes (Fig. S5) in assay [2] of 0.3 nM.
In assay [3], “hGITRL FP with the human matrilin 1 trimerization domain (from UniProt Q9UNG2 49-177) (Fc fusion)” registered an NFκB-luciferase reporter in hGITR-transfected Jurkat cells, agonism EC50 of 0.92 nM.

The Kd is the free concentration of one partner at which half of the binding sites on the other are occupied at equilibrium, for simple one-to-one binding.
